The source of these data is a protein production outcome set (Wang et al. 2014).

The nature of the data set: label from the status in PepcDB records.
For the sequence “MPVILCPAAEESSGLMMKSAETASLTVSHNELQAMAYTDPLTGLGNRNRMRDKVLQISAERASDPAPFTIGIANLDSFKPINDLFGSSAGDEILCQVAHRLRACIPDGALVTRHDGDEFAFVLPLIFERASAEKFGQMIREVLSAPYDLGDRNVRLSASFGFAIYPFAGEDCEELLKSAETALYRSKRRGRGQITVYSREIAQEMKRATQLEQALRNAIISDAIDVHFQPIVSLANNQVVGFEALARWNDPDLGFVSPGVFVPLAEERGFIDALSEALLRKAAEAALSWPRELFLSFNLSSAQLMDPGTSGSILSILGRVGFDPHRLELEITETAVMGSADTAHRIIADLRAAGVRISLDDFGTGQSSLGRLRDFIFDKIKIDRAFVSRINSDRASEHIIKAILSLCEGLELEVVAEGIEDYAEAVKLRTLGCGMGQGYHFGRPADGIATLRFLHENYYDMAPAERVSA”, the protein production result is listed as “failed”.

As to “MSNVRVLATDLAFPEGPVVMPDGSVVLVEIRAQQLTRVWPDGRKEVVAKVPGGPNGAALGPDGKMYICNNGGFGWFPSRGTMMPGAPAPHEYIGGSIQRVDLQSGEVETLFDKCGEHPLKGPNDLVFDKHGGLWFTDLGKRRARDMDVGAAYYIKPGMTEITEQVFGTLPLNGIGLSPDEATMYAAETPTGRLWAFDLSGPGEVKPRDVIYRGEKGKPICGLGGYQMFDSLAVEASGNVCVATLVSGCISVIAPDGTLVEQVPTGDRVTTNIAFGGPDLKTAYITLSGKGELIAMDWSRPGLPLNFLNKLEHHHHHH”, the protein production entry is given as “failed”.

For the sequence “MSVSIILMGLFVGALVGLTGVGGAALLTPLLIVLGINPSIAVGTDLVYNSITKLFGVASHWRQKTINFKLVKYLAIGSIPSASLAIGILHLFPAFHQHQEEIIKHALGYVLTLVAISIIVRLFLDRKLRPNRWQLMPLENKRALTILIGVVFGFIVGLTSIGSGSLFAIAMIYLFNMKASQIVGTDIAHAFLLVTAAGILNASFGSVDYMLAANLLLGSIPGVLIGSHLSPRFSPRPLQFIMASIILVSGLKLI”, the protein production result was “failed”.

Turning to “MTRFWTRLIVVLTVILGVNYVAWRWMASLNWEAWWIAVPLVIAETYSLIDVMLFGLTVWNIKFRKPPPPPPADATVDVFITTYNEPLDLVMTTALAAKEIRWPHSTWILDDGDRPEMRELAESNGIGYVTRGADWTPDMPRHAKAGNLNNALMLTSGEYLLILDADQIPEPDILDKTLGYFNDDKVALVQTPQYFINVPADDPLGSQAPLFYGPIQQGKDGWNAAFFCGSNAILRREALMQLGLVGYVKATEKSVRRALAASRTAIRKARRSPEAENPLVEQMLNEVEAATESAQKELEAGASLSEITYRVRRQVDDAVRTLVAADFSALQSDLEEIAAMELAHVGESGVTTVATDAVDRMSGRDWSPLGALESVHAVLDAISVERTDEAQPIMPLATISVTEDMATAMRLHGLGWKSVYHHEILANGLAPEDVKTMLTQRLRWAQGTMQVLLRENPLVQRRLTWGQRLMYFSTMWTYLSGFAAVVYFAAPIIYLTLGILPVNSISSDFFIRFIPFMVVNQLLFLVAGHGIPTWRGQQYSLALFPTWIKACTTAARNVWFGRPLGFAVTPKARQSGGPSWSLIRPQIIVAVLLAVALIVGLIRLLAGMSEPLGTLVNVAWVAFDLVVLSVLVKAVLYKGFVPEVVGPERPEERNADAV”, the protein production entry is given as “failed”.

In the case of “MANLGMTGVADGNNSEQTYLGQINYQDQTITKASAKKLNREIDLQRASQLTLWAMPMVGMYQSYNSTIALFDLQEGDAPIIGLHEGYDGVYPFLTANVTTPYTISLVDLSETGPYVVNIPAGSIFGVANNAWQEPIKEIGSGNKETLLFVGPGQEYPKDFDGEVIQSDTNQILYFYRVLGVGAEAEKLKTAVTAYKLSDVANPPQVKFVIYKPKASDADVTIATQPRGMAYWEVVNQYIQNEPMADRDRFFYAWLKDLGIEKGKAFNPTPYQKEILLEGVNTGMAMAQSLAFNKTKKKFSSSLYGSDSGWEGVLAGMDPKIDLDTYSMINERTAYTYEAVTTSAGMIVENPGHGSAYIGSYYDADGNALMGGKNYTLHIEPNPPAANFWSITVYDIKNRLIIRNEIKRSDLSSRSESLVMNSDGSVDLYFGPEAPEGKEGNWIQSNDGESYFMYLRLYGPEQEYFDQTYPMNKIDKTKLEHHHHHH”, the protein production entry is listed as “failed”.

Take “MPAKPIDLGPLHFAKRGDAVAYLNDMLHRYDVGDRVGANDTVILRAALEHHPDAEAKKGCGITHFNVRTADFGTKCFWLNRTDGTTEKFSHRACIYGT”: the protein production entry is “failed”.

For “MGHHHHHHSHMTKIIPVASGKGGVGKTSFVANVGYKLSSLGKTVILVDLDLGGSNLHTCLGVKNKGVGIGSFINKKSKSFSDLVCKTSYDKLYLIPGDALYTGTANLPFSIKKKIIESIQKDLIADFIFLDLGSGTSYNTIDFYLASYSGVIVTIPETPSILNAYSFLKNALYRLLYLGFP”, the protein production entry is “failed”.

As to “LKDVLNILLMDEISKLKDFLSNLDYIKPKVNIEEEIIEIRKEDIINALKLFKGKYEIEVDKIPKAVYVYLVKKNILFLYPQRGTLKPQSFLVWNAIKRVL”, the protein production entry was “not failed”.

Take “MTATPGTTVPAPIMQTTDNSLTWLLQNLLDRTPGTRHALVLSRDGLRLCWTEHLTLDRADQLAAICSGIQALAQGASVEFGNGTGGVRHSMTEFHGGLLFIVEAGEGAHLAVVAVEDADPGVVGHQMTELVEQIGEHLRAEPRHAVPGGSSS”: the protein production result is on record as “failed”.

With “MTISRTQQIQQLEQEWTSPRWKNITRPYSAEDVIKLRGSVNPECTFAQNGAKKLWELLHGGSRKGYINCLGALTGGQALQQAKAGVEAIYMSGWQVAADANTASSMYPDQSLYPVDSVPAVVKRINNSFRRADQIQWSNNIEPGSKGYTDYFLPIVADAEAGFGGVLNAFELMKAMIEAGAAGVHFEDQLAAVKKCGHMGGKVLVPTQEAIQKLVAARLAADVLGVPTLLIARTDADAADLLTSDCDPYDREFITGDRTAEGFFRTRAGIEQAISRGLAYAPYADLVWCETSTPDLALAKRFADAVHAQFPGKLLAYNCSPSFNWKKNLTDQQIASFQDELSAMGYKYQFITLAGIHSMWFNMFDLAHAYAQGEGMKHYVEKVQQPEFASVDRGYTFASHQQEVGTGYFDKVTNIIQGGASSVTALTGSTEEQQF”, the protein production entry is listed as “not failed”.

On to “MLVKFWGVRGSLPAPLTPAQVQSKIAAVVQRITLKDIESQDSRERFLASLPKWLFGTIGSNTACVEVETDDGGHLIFDAGTGIRELGIDLMKRPDYGKNTTYHLFFSHFHWDHIQGLPFFNPAYDPRNKIIVYSTRKKAKEFLEDQMKYPYFPISMLGEDGFGASFEFKYIEPDQKYVEIGDTKIGWHRVRHPGGCTAYSVIEKGKKIIYSTDTELRPRDFERNEQNAEFYTDAEMLIIDAQYTLTDSILKEGWGHSTFSVAIDFAAGWNIKSIALFHHEPTYHDKKVFSLKQTADWYRDCSRAPDIKIFIAQEGRSFLI”, for which the protein production result is “failed”.

Turning to “MLEIMLMVCIGALAAVMANLGIAVFNDGIRPIVPENLEGRMTRKELGVTAFAMSFGLVIGFGIPISIAGSIILIHSILLGSDIIGLALDRGKVKTTIAAIIGGLYGAGIYMGLQVVVDLFTMLPLNFVDAFNKVGDPVVVSFMVFPAIAIALQFGVKKGIIAFAIAAFARQLIVFTNGAELIKIGSTPVVLSPEGIALVVGMFLLIFFAMREKSEETNLSTLATLFTDRVARIKKHRWILMLSGGLVAAATNLLLIAGDPISLNLLAEGKMSEGGIAALAKAIGFVPLIASTAIATGVYGPIGFTFVFAAGIFAPNLGIALLIGALIIFLEIQLLTKLATFLDRYPGIRASGENIRTAMSRVLEVALLIGGANAADAIVPGFGFFAIAGFYLINEIAGRPIVRMAIGPVGAIIVGIVGNLLVLLGLYTP”, the protein production result is listed as “failed”.

Regarding “MNELTQSDNYQLLNRELAAPDPWGLDANPFERERHTQMLRLALAQGSISSALEVGCAAGAFTVQLAPHCKRLTVIDVVPQAIERSRRRIRGSPHISWIVSDVQQFSPDERFDLIVVAEVLYYIGGIAEMRGAVRNLVRMLAPDGYLVFGSARDANCRRWGHVAGAETILGMLNETLLEVERLECRGESVNEDCLLACFRNPFSAS”, the protein production entry is “failed”.

On to “HYIFPHARIKITRDSKDHTVSGNGLGIRIVGGKEIPGHSGEIGAYIAKILPGGSAEQTGKLMEGMQVLEWNGIPLTSKTYEEVQSIISQQSGEAEICVRLDLNM”, for which the protein production entry is listed as “not failed”.

As for “MTNPGDGAAGAADRATLDHWRPRLAAIAAAAGQDDAAHDLGHLRRVWDAARAMLQAHPEADALVVLAASYLHDLVNLPKNHPERHLASRQAAAAARERLARAGFPAARLDAVAHAIEAHSFSAGIAPRTIEARIVQDADRLDALGPVGLVRMFHVGGSLGRALAHPSDPLAAQRALDDSRYTLDHIEAKLARLPHGMQTEAGRRLGEQRLAWLRDFRAAFSAQWGGGQLRLEHHHHHH”, the protein production result was “failed”.

As for “MNLPNKLTVLRIFMIPIFIIIVSVPMDWGTISFGDTTLAVTQLVGAIIFAVASFTDWLDGKIARAQGLVTNFGKFADPLADKMLVMTAFIVLVGQGKVPAWIVAIIVCRELAVTGLRLLLVEHGEVMAAAWPGKVKTATQMVAIILLFINNIPFSALHLPLDQIMLYACLIFTIYSGVDYFAKNKDVFKGSM”, the protein production result was “failed”.

Take “MVGINTDTENISELLKTYWSIQRISAGYADQNAASLGLTIQQLAMINVIYSTPGISVADLTKRLIITGSSAAANVDGLISLGLVVKLNKTIPNDSMDLTLKLSKKGEDLSKRSTANAFMYKAMMKVFENLTENEIEELIRLNKKVETLLKKSK”: the protein production entry is listed as “not failed”.

Consider “GSSGSSGMDEDVLTTLKILIIGESGVGKSSLLLRFTDDTFDPELAATIGVDFKVKTISVDGNKAKLAIWDTAGQERFRTLTPSYYRGAQGVILVYDVTRRDTFVKLDNWLNELETYCTRNDIVNMLVGNKIDKENREVDRNEGLKFARKHSMLFIEASAKTCDGVQCAFEELVEKIIQTPGLWESENQNSGPSSG”, for which the protein production result is listed as “not failed”.

For “MADTSPSACLVFQGSGFYAKLSDFRACLTGFMLPLSPSLLPTLAAAVLYAAATFYQGSRLATGAKANKRLLVTLGILALLAHAASLLTHLLTPVGLGLDFFSAASLIAAAVIALTLLACWRIPVENLLVLLFPLGALTALLAQFVPTGTVPVIDEEPGILAHILLSILAYGMFTIAVFQALLLLVQDHQLKNKHPSGLIRNFPPLQTMESLLFGFLWAGWTLLSLSLISGWLFVENLFAQHLVHKTLLACLAWVVFSVLLWGRNRLGWRGHKAIRWTLAGFCLLMLAYFGSKLVREYILHI”, the protein production entry was “failed”.

As for “MTNGKIWLVVKPTVGVPLFLSAAVIASVVIHAAVLTTTTWLPDYYQGSAKVAAE”, the protein production result is “failed”.

Turning to “MRTLAVISAGLSTPSSTRQIADSISEAVTAAVSARGEALSVSTIELSELIPDLMTAMTTRVHTTKLEEITSALSASDGLVVATPVFKASYTGLFKMFFDILDTDALTGMPTIIAATAGSARHSLVLDYALRPLLSYMRAVVVPTGVFAATEDFGGPEGAEFNKRIARAAGELASLIVEESGNVGLEHHHHHH”, the protein production entry is given as “failed”.

Take “MTQRSLADIQFQTTLEGVTPAQLGGFFEGWPNPPTPETLWRILDRAAVFVLARTPDGQVIGFVNALSDGILAASIPLLEVQAGWRSLGLGSELMRRVLTELGDLYMVDLSCDDDVVPFYERLGLKRANAMFLRRYDNQAGIPAE”: the protein production result was “not failed”.

With “MEQSFFRELLHYQRPKDNPFRLVFAGLVMFSILFLGYINHQLLISSFGSLGIFTFLYYQPLPLKQLMTRLSVVGSYLFLGNLLGMLSTHIAWLIPIVVALVGFGGRFFFEVYDISKPGAFFGVMVTAMGASTSIPLAKIPFMSGCMLLGIGFSILFALVLHFTEKEISVPLAKRSLRERIYQHPEAPLDSIYYSFVLFFAVYISESLHLQNPYWLVVSCASILQGDNLRAIKQRNIQRIFGTTIGLVISAFLLNLALTTFESIVVITILFVTVEYFIRRNYGLAQFFTTPMALMLSLLVRQQYVITLIQFRFLGIVLGSLLGLSSSVAIHRCSNVL”, the protein production result was “failed”.
